Experimental data reported in article PMC9352680, “A comprehensive thermodynamic model for RNA binding by the Saccharomyces cerevisiae Pumilio protein PUF4”.
Positions count from the first letter of the chain named. Names and notes keep the numbering of the source.

T1: PUF4 RNA-binding domain (Saccharomyces cerevisiae, UniProt P25339 537-888)
T1 sequence: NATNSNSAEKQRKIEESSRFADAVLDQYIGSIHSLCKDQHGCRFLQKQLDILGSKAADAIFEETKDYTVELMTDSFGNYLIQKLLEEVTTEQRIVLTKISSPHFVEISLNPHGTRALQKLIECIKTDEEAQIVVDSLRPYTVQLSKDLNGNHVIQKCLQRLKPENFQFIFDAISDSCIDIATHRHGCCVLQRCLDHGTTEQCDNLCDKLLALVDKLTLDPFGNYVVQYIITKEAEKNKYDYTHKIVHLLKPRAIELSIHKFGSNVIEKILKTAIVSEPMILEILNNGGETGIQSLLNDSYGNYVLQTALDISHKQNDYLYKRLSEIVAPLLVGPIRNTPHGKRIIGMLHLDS

B1: Ic_S4_P5E.1_K5.1_C5.1_H5.1_A5.1_[T5C]_[T6A]_F5.1_[T8A]_[A10C]_T5.1 (ssRNA)
RNA: UUUGACAACUGAUCGUUCUUUCUUGUACAAAUCUUCUUUCUCGAUCAGUUGUCUUU
B2: Ic_S4_P5E.1_K5.1_C5.1_H5.1_A5.1_[T6C]_[A7C]_F5.1_[T8A]_[T9G]_[A10C]_T5.1 (ssRNA)
RNA: B1 RNA with C28U, A29C, A30C, U32G
B3: Ic_S4_P5E.1_K5.1_C5.1_H5.1_A5.1_[T5A]_[A7T]_F5.1_[T8A]_[A10C]_T5.1 (ssRNA)
RNA: B1 RNA with C28A, A29U, A30U
B4: Ic_S4_P5E.1_K5.1_C5.1_H5.1_A5.1_[T6C]_[A7T]_F5.1_[T9C]_[A10C]_T5.1 (ssRNA)
RNA: B1 RNA with C28U, A29C, A30U, A31U, U32C
B5: Ic_S4_P5E.1_K5.1_C5.1_H5.1_A5.1_[T5G]_[T6C]_[A7T]_F5.1_[T8C]_T5.1 (ssRNA)
RNA: B1 RNA with C28G, A29C, A30U, A31C, C33A
B6: Ic_S4_P5E.1_K5.1_C5.1_H5.1_A5.1_[T5A]_[T6C]_[A7T]_F5.1_[T8A]_[A10C]_T5.1 (ssRNA)
RNA: B1 RNA with C28A, A29C, A30U
B7: Ic_S4_P5E.1_K5.1_C5.1_H5.1_A5.1_[T5A]_[A7G]_F5.1_[T8G]_[A10C]_T5.1 (ssRNA)
RNA: B1 RNA with C28A, A29U, A30G, A31G
B8: Ic_S4_P5E.1_K5.1_C5.1_H5.1_A5.1_[T5G]_[T6C]_F5.1_[T8C]_[A10T]_T5.1 (ssRNA)
RNA: B1 RNA with C28G, A29C, A31C, C33U
B9: Ic_S4_P5E.1_K5.1_C5.1_H5.1_A5.1_[T6A]_[A7T]_F5.1_[T8C]_[T9G]_[A10G]_T5.1 (ssRNA)
RNA: B1 RNA with C28U, A30U, A31C, U32G, C33G
B10: Ic_S4_P5E.1_K5.1_C5.1_H5.1_A5.1_[T5G]_[A7C]_F5.1_[T9C]_[A10G]_T5.1 (ssRNA)
RNA: B1 RNA with C28G, A29U, A30C, A31U, U32C, C33G
B11: Ic_S4_P5E.1_K5.1_C5.1_H5.1_A5.1_[T6C]_F5.1_[T8G]_[A10C]_T5.1 (ssRNA)
RNA: B1 RNA with C28U, A29C, A31G
B12: Ic_S4_P5E.1_K5.1_C5.1_H5.1_A5.1_[T6G]_[A7T]_F5.1_[T8A]_[T9C]_[A10C]_T5.1 (ssRNA)
RNA: B1 RNA with C28U, A29G, A30U, U32C
B13: Ic_S4_P5E.1_K5.1_C5.1_H5.1_A5.1_[T5C]_[T6G]_[A7C]_F5.1_[T8C]_[T9C]_T5.1 (ssRNA)
RNA: B1 RNA with A29G, A30C, A31C, U32C, C33A
B14: Ic_S4_P5E.1_K5.1_C5.1_H5.1_A5.1_[T5C]_[T6A]_[A7G]_F5.1_[A10G]_T5.1 (ssRNA)
RNA: B1 RNA with A30G, A31U, C33G
B15: Ic_S4_P5E.1_K5.1_C5.1_H5.1_A5.1_[A7T]_F5.1_[T8A]_[T9A]_T5.1 (ssRNA)
RNA: B1 RNA with C28U, A29U, A30U, U32A, C33A
B16: Ic_S4_P5E.1_K5.1_C5.1_H5.1_A5.1_[A7G]_F5.1_[T8C]_[T9C]_[A10T]_T5.1 (ssRNA)
RNA: B1 RNA with C28U, A29U, A30G, A31C, U32C, C33U
B17: Ic_S4_P5E.1_K5.1_C5.1_H5.1_A5.1_[T5C]_[T6A]_F5.1_[T9G]_[A10G]_T5.1 (ssRNA)
RNA: B1 RNA with A31U, U32G, C33G
B18: Ic_S4_P5E.1_K5.1_C5.1_H5.1_A5.1_[T6A]_[A7G]_F5.1_[T8C]_[T9A]_[A10T]_T5.1 (ssRNA)
RNA: B1 RNA with C28U, A30G, A31C, U32A, C33U
B19: Ic_S4_P5E.1_K5.1_C5.1_H5.1_A5.1_[T6G]_[A7T]_F5.1_[T8A]_[T9A]_T5.1 (ssRNA)
RNA: B1 RNA with C28U, A29G, A30U, U32A, C33A
B20: Ic_S4_P5E.1_K5.1_C5.1_H5.1_A5.1_[T5A]_[T6C]_[A7T]_F5.1_[T8A]_[T9A]_T5.1 (ssRNA)
RNA: B1 RNA with C28A, A29C, A30U, U32A, C33A
B21: Ic_S4_P5E.1_K5.1_C5.1_H5.1_A5.1_[T6A]_[A7T]_F5.1_[T8A]_[T9C]_[A10G]_T5.1 (ssRNA)
RNA: B1 RNA with C28U, A30U, U32C, C33G
B22: Ic_S4_P5E.1_K5.1_C5.1_H5.1_A5.1_[A7C]_F5.1_[T9G]_[A10G]_T5.1 (ssRNA)
RNA: B1 RNA with C28U, A29U, A30C, A31U, U32G, C33G
B23: Ic_S4_P5E.1_K5.1_C5.1_H5.1_A5.1_[T5G]_[T6C]_[A7T]_F5.1_[T8C]_[T9G]_[A10T]_T5.1 (ssRNA)
RNA: B1 RNA with C28G, A29C, A30U, A31C, U32G, C33U
B24: Ic_S4_P5E.1_K5.1_C5.1_H5.1_A5.1_[T5A]_[T6A]_[A7T]_F5.1_[T8A]_[T9C]_[A10G]_T5.1 (ssRNA)
RNA: B1 RNA with C28A, A30U, U32C, C33G
B25: Ic_S4_P5E.1_K5.1_C5.1_H5.1_A5.1_[T6A]_[A7T]_F5.1_[T8A]_[T9A]_[A10T]_T5.1 (ssRNA)
RNA: B1 RNA with C28U, A30U, U32A, C33U
B26: Ic_S4_P5E.1_K5.1_C5.1_H5.1_A5.1_[T5C]_[A7C]_F5.1_[A10T]_T5.1 (ssRNA)
RNA: B1 RNA with A29U, A30C, A31U, C33U
B27: Ic_S4_P5E.1_K5.1_C5.1_H5.1_A5.1_[T6G]_[A7G]_F5.1_[T8C]_[A10C]_T5.1 (ssRNA)
RNA: B1 RNA with C28U, A29G, A30G, A31C
B28: Ic_S4_P5E.1_K5.1_C5.1_H5.1_A5.1_[T5A]_[T6C]_[A7T]_F5.1_[T8C]_[T9C]_[A10C]_T5.1 (ssRNA)
RNA: B1 RNA with C28A, A29C, A30U, A31C, U32C
B29: Ic_S4_P5E.1_K5.1_C5.1_H5.1_A5.1_[T5G]_[T6C]_F5.1_[T8G]_[A10C]_T5.1 (ssRNA)
RNA: B1 RNA with C28G, A29C, A31G
B30: Ic_S4_P5E.1_K5.1_C5.1_H5.1_A5.1_[T6A]_[A7T]_F5.1_[T8C]_[T9C]_[A10T]_T5.1 (ssRNA)
RNA: B1 RNA with C28U, A30U, A31C, U32C, C33U
B31: Ic_S4_P5E.1_K5.1_C5.1_H5.1_A5.1_[T5C]_F5.1_[T8A]_[T9C]_[A10C]_T5.1 (ssRNA)
RNA: B1 RNA with A29U, U32C
B32: Ic_S4_P5E.1_K5.1_C5.1_H5.1_A5.1_[T5A]_[T6C]_F5.1_[T8G]_[T9C]_[A10T]_T5.1 (ssRNA)
RNA: B1 RNA with C28A, A29C, A31G, U32C, C33U
B33: Ic_S4_P5E.1_K5.1_C5.1_H5.1_A5.1_[T6A]_[A7C]_F5.1_[T8C]_[T9G]_[A10G]_T5.1 (ssRNA)
RNA: B1 RNA with C28U, A30C, A31C, U32G, C33G
B34: Ic_S4_P5E.1_K5.1_C5.1_H5.1_A5.1_[T5A]_[T6A]_[A7T]_F5.1_[T9A]_T5.1 (ssRNA)
RNA: B1 RNA with C28A, A30U, A31U, U32A, C33A
B35: Ic_S4_P5E.1_K5.1_C5.1_H5.1_A5.1_[T5C]_[T6A]_[A7G]_F5.1_[T9G]_[A10C]_T5.1 (ssRNA)
RNA: B1 RNA with A30G, A31U, U32G
B36: Ic_S4_P5E.1_K5.1_C5.1_H5.1_A5.1_[T5A]_[T6C]_[A7C]_F5.1_[A10T]_T5.1 (ssRNA)
RNA: B1 RNA with C28A, A29C, A30C, A31U, C33U
B37: Ic_S4_P5E.1_K5.1_C5.1_H5.1_A5.1_[T5A]_[T6A]_F5.1_[T8C]_[T9A]_[A10C]_T5.1 (ssRNA)
RNA: B1 RNA with C28A, A31C, U32A
B38: Ic_S4_P5E.1_K5.1_C5.1_H5.1_A5.1_[T5G]_[A7T]_F5.1_[T8C]_[A10T]_T5.1 (ssRNA)
RNA: B1 RNA with C28G, A29U, A30U, A31C, C33U
B39: Ic_S4_P5E.1_K5.1_C5.1_H5.1_A5.1_[T5C]_[T6A]_[A7T]_F5.1_[T8A]_[T9A]_[A10C]_T5.1 (ssRNA)
RNA: B1 RNA with A30U, U32A
B40: Ic_S4_P5E.1_K5.1_C5.1_H5.1_A5.1_[T5C]_[T6G]_[A7C]_F5.1_[T9A]_[A10C]_T5.1 (ssRNA)
RNA: B1 RNA with A29G, A30C, A31U, U32A

These binders were tested against T1, PUF4 RNA-binding domain (assay: Mg; RNA-MaP; 20 mM Na-HEPES pH 7.4, 30 mM KOAc, 0.75 mM MgCl2, 0.1% Tween-20, 5% glycerol, 0.1 mg/mL BSA, 2 mM DTT; 25 C; 0.0125-409.6 nM protein). Details: tags: N-His6-TEV cleaved; C-SNAP kept, Cy3B-labelled; label: tethered on chip by stalled RNA polymerase.

Binder	Kd
UCUCUUAAUGUAUAUAUAUCUCUU (ssRNA) [Id_i_S1_P3E.2_K3.1_C3.2_[C-2A]_[T-1A]_H3.1_A3.1_F3.1_T3.2]	7.22 nM
UCUCUUUGUAUAUAUAUAUCUCUU (ssRNA) [Id_ii_S1_P3E.3_K3.2_C3.2_[C-2T]_[T-1G]_H3.2_A3.1_F3.1_T3.2]	6.55 nM
UCUCUUUGUGUAUAUAUAUCUCUU (ssRNA) [Id_ii_S1_P3E.2_K3.1_C3.2_[C-2T]_[T-1G]_H3.1_A3.1_F3.1_T3.2]	6.24 nM
B1	26.1 nM
B2	1010 nM
B3	126 nM
B4	17.2 nM
B5	10.1 nM
B6	156 nM
B7	1350 nM
B8	172 nM
B9	72.8 nM
B10	425 nM
B11	342 nM
B12	28.6 nM
B13	463 nM
B14	27.4 nM
B15	38.9 nM
B16	402 nM
B17	16.9 nM
B18	56.4 nM
B19	55.6 nM
B20	233 nM
B21	6.59 nM
B22	27.2 nM
B23	476 nM
B24	50.2 nM
B25	2.4 nM

Binder	Kd
B26	10.9 nM
B27	849 nM
B28	198 nM
B29	976 nM
B30	14.7 nM
B31	229 nM
B32	662 nM
B33	144 nM
B34	2.48 nM
B35	10.6 nM
B36	18 nM
B37	190 nM
B38	91.8 nM
B39	7.13 nM
B40	6.66 nM
UCUCUUGCUAUAUAUAUAUCUCUU (ssRNA) [Id_i_S1_P3E.3_K3.2_C3.2_[C-2G]_[T-1C]_H3.2_A3.1_F3.1_T3.2]	569 nM
UCUCUUUGUAUAAUCUCUCUU (ssRNA) [Ic_S1_P4E.1_K4.1_C4.1_H4.1_A4.1_[T7A]_F4.1_[A9C]_T4.1]	15.8 nM
UCUCUUUGUAAAUUAUCUCUU (ssRNA) [Ia_S1_P4E.1_K4.1_C4.1_H4.1_A4.1_[T5A]_F4.1_T4.1]	2.08 nM
UCUCUUACUGUAUAUAUAUCUCUU (ssRNA) [Id_i_S1_P3E.2_K3.1_C3.2_[C-2A]_[T-1C]_H3.1_A3.1_F3.1_T3.2]	9.07 nM
UCUCUUUAUGUAUAUAUAUCUCUU (ssRNA) [Id_ii_S1_P3E.2_K3.1_C3.2_[C-2T]_[T-1A]_H3.1_A3.1_F3.1_T3.2]	8.02 nM
UCUCUUUGUAUAGUCUCUCUU (ssRNA) [Ic_S1_P4E.1_K4.1_C4.1_H4.1_A4.1_[T7G]_F4.1_[A9C]_T4.1]	23.4 nM
UCUCUUUGUAUAAUGUCUCUU (ssRNA) [Ic_S1_P4E.1_K4.1_C4.1_H4.1_A4.1_[T7A]_F4.1_[A9G]_T4.1]	6.03 nM
UCUCUUUCUGUAUAUAUAUCUCUU (ssRNA) [Id_ii_S1_P3E.2_K3.1_C3.2_[C-2T]_[T-1C]_H3.1_A3.1_F3.1_T3.2]	3.33 nM
UCUCUUGCUGUAUAUAUAUCUCUU (ssRNA) [Id_ii_S1_P3E.2_K3.1_C3.2_[C-2G]_[T-1C]_H3.1_A3.1_F3.1_T3.2]	7.65 nM
UCUCUUUGUAUACUCUCUCUU (ssRNA) [Ic_S1_P4E.1_K4.1_C4.1_H4.1_A4.1_[T7C]_F4.1_[A9C]_T4.1]	9.32 nM
UCUCUUAGUGUAUAUAUAUCUCUU (ssRNA) [Id_i_S1_P3E.2_K3.1_C3.2_[C-2A]_[T-1G]_H3.1_A3.1_F3.1_T3.2]	14.6 nM
UCUCUUUGUAUACUGUCUCUU (ssRNA) [Ib_S1_P4E.1_K4.1_C4.1_H4.1_A4.1_[T7C]_F4.1_[A9G]_T4.1]	5.39 nM
